Results from US20230272114A1 (published 2023).

T1: recombinant human FcγRIIb protein (R&D Systems) (human, UniProt P31994 46-217)
T1 chain: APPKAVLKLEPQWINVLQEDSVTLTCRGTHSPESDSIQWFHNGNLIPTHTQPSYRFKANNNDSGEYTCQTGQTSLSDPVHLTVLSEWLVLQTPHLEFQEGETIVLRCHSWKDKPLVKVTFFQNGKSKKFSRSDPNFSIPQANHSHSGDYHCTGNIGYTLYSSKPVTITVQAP

T2: Fc region of IgE (UniProt P01854 105-428)
T2 chain: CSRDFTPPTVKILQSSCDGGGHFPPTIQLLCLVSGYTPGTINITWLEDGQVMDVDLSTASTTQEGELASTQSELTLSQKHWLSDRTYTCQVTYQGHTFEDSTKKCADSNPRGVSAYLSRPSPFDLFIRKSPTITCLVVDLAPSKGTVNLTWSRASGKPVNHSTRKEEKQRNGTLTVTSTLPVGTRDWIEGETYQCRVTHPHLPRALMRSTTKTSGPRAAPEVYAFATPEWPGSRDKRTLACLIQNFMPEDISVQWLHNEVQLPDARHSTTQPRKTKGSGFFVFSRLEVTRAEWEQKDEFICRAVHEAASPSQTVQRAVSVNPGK


Legend:
S267E = assay: Biacore SPR
[1] = molecular target: T1, recombinant human FcγRIIb protein (R&D …); assay: Biacore SPR
Fc region of IgE = molecular target: T2, Fc region of IgE; assay: Biacore

Kd (S267E) [nM] | Kd [1] [nM] | Kd (Fc region of IgE) [nM] | Binder
960 |  |  | H131 FcγRIIa (receptor) QAAAPPKAVLKLEPPWINVLQEDSVTLTCQGARSPESDSIQWFHNGNLIPTHTQPSYRFKANNNDSGEYTCQTGQTSLSDPVHLTVLSEWLVLQTPHLEFQEGETIMLRCHSWKDKPLVKVTFFQNGKSQKFSHLDPTFSIPQANHSHSGDYHCTGNIGYTLFSSKPVTITVQVPSMGSSSPMGHHHHHH
 | 5.6 | 0.063 | MaE11_H1L1_IgG1_S267E/L328F (antibody) chain 1: not shown chain 2: DIQLTQSPSSLSASVGDRVTITCRASQSVDYDGDSYMNWYQQKPGQPPKLLIYAASYLGSEIPARFSGSGSGTDFTLTISSLQPEDFATYYCQQSHEDPYTFGAGTKLEIKRTVAAPSVFIFPPSDEQLKSGTASVVCLLNNFYPREAKVQWKVDNALQSGNSQESVTEQDSKDSTYSLSSTLTLSKADYEKHKVYACEVTHQGLSSPVTKSFNRGEC
 |  | 0.064 | MaE11_H1L1_IgG1_G236R/L328R (antibody) chain 1: not shown chain 2: DIQLTQSPSSLSASVGDRVTITCRASQSVDYDGDSYMNWYQQKPGQPPKLLIYAASYLGSEIPARFSGSGSGTDFTLTISSLQPEDFATYYCQQSHEDPYTFGAGTKLEIKRTVAAPSVFIFPPSDEQLKSGTASVVCLLNNFYPREAKVQWKVDNALQSGNSQESVTEQDSKDSTYSLSSTLTLSKADYEKHKVYACEVTHQGLSSPVTKSFNRGEC
 | 2000 | 0.061 | MaE11_H1L1_IgG1_WT (antibody) chain 1: not shown chain 2: DIQLTQSPSSLSASVGDRVTITCRASQSVDYDGDSYMNWYQQKPGQPPKLLIYAASYLGSEIPARFSGSGSGTDFTLTISSLQPEDFATYYCQQSHEDPYTFGAGTKLEIKRTVAAPSVFIFPPSDEQLKSGTASVVCLLNNFYPREAKVQWKVDNALQSGNSQESVTEQDSKDSTYSLSSTLTLSKADYEKHKVYACEVTHQGLSSPVTKSFNRGEC
0.26 |  |  | FcγRI (receptor) QVDTTKAVITLQPPWVSVFQEETVTLHCEVLHLPGSSSTQWFLNGTATQTSTPSYRITSASVNDSGEYRCQRGLSGRSDPIQLEIHRGWLLLQVSSRVFTEGEPLALRCHAWKDKLVYNVLYYRNGKAFKFFHWNSNLTILKTNISHNGTYHCSGMGKHRYTSAGISVTVKELFPAPVLNASVTSPLLEGNLVTLSCETKLLLQRPGLQLYFSFYMGSKTLRGRNTSSEYQILTARREDSGLYWCEAATEDGNVLKRSPELELQVLGLQLPTP
60 |  |  | FcγRIIb (receptor) APPKAVLKLEPQWINVLQEDSVTLTCRGTHSPESDSIQWFHNGNLIPTHTQPSYRFKANNNDSGEYTCQTGQTSLSDPVHLTVLSEWLVLQTPHLEFQEGETIVLRCHSWKDKPLVKVTFFQNGKSKKFSRSDPNFSIPQANHSHSGDYHCTGNIGYTLYSSKPVTITVQAP
